{"source": "patent US9266930", "data": [{"binder": "GSGEPLIDVH (modifications not checked)", "note": "[… (P. falciparum EXP, position 42)]", "values": [{"measurement": "binding affinity ratio (IC50 of standard peptide / IC50 of test peptide)", "setting": "HLA-A*0301 (human)", "result": 0.0005}, {"measurement": "binding affinity ratio (IC50 of standard peptide / IC50 of test peptide)", "setting": "HLA-A*1101 (Human)", "result": 0.0002}]}]}
